Laboratory results reported in patent US20160297851A1, “BROAD SPECTRUM […]” (priority 2012, published 2016).

Columns and labels:
[1] = target: P84S variant of the truncated E. coli SPase (Δ2-75) (Escherichia coli) (UniProt P00803); test: steady-state increase of arylomycin fluorescence (ex 320 nm, em 410 nm) on binding the soluble N-terminally truncated (delta 2-75) E. coli SPase P84S
[2] = target: P84S variant of the truncated E. coli SPase (Δ2-75) (Escherichia coli) (UniProt P00803); test: steady-state binding by increase of arylomycin fluorescence (ex 320 nm, em 410 nm); truncated SPase in n-octyl-β-glucopyranoside micelles
[3] = target: full-length wild type S. aureus SPase (His6x-tagged SpsB) (Staphylococcus aureus); test: steady-state increase of arylomycin fluorescence (ex 320 nm, em 410 nm) on binding full-length wild type S. aureus SPase
[4] = target: full-length P29S mutant of S. aureus SPase (His6x-tagged SpsB(P29S)) (Staphylococcus aureus); test: steady-state increase of arylomycin fluorescence (ex 320 nm, em 410 nm) on binding full-length S. aureus SPase P29S
[5] = target: full-length P29S mutant of S. aureus SPase (His6x-tagged SpsB(P29S)) (Staphylococcus aureus); test: steady-state binding by increase of arylomycin fluorescence; full-length His-tagged S. aureus SPase, buffer with 10% glycerol
[6] = target: full-length wild type S. aureus SPase (His6x-tagged SpsB) (Staphylococcus aureus); test: as above

Substance: arylomycin C16 (peptide)
- EC50 (read off the curve) [1]: 90 nM
- Kd [2]: 39 nM
- EC50 (read off the curve) [3]: 2000 nM
- EC50 (read off the curve) [4]: 200 nM
- Kd [5]: 130 nM
- Kd [6]: 1280 nM
